Laboratory results published in US11653679B2, “High-purity steviol glycosides” (PureCircle Sdn Bhd, priority 2014, dated 2023).
Values belong to the molecule of their own block, whether it stands above or below them.

Tests used:
[1] = Solubility of reb M in water and solvents; format: physicochemical
Method: Other properties of the pure reb M compound include a melting point of 249-250° C., and a specific rotation of [α]D^25−19.0° in 50% ethanol (C=1.0). The solubility of reb Min water is around 0.3%, and increases with an increase in temperature.
Reb M is soluble in diluted solutions of methanol, ethanol, n-propanol, and isopropanol. However, it is insoluble in acetone, benzene, chloroform, and ether.

[2] = Heat and pH stability of reb M; format: physicochemical
[3] = Sweetness of reb M compared to a 10% sucrose solution
Source text: The high purity reb M obtained in this invention, having a molecular weight of 1291.29, a molecular formula of C56H90O33, CAS registry number 1220616-44-3, and the structure presented in FIG. 1, is in the form of a white and odorless powder. The compound is about 200 times sweeter than sugar when compared to a 10% sucrose solution.

[4] = Catalytic reaction Rebaudioside A to Rebaudioside D with in-vitro produced UGT91D2 (Example 5); format: biochemical; conditions: after 120 h, in-vitro produced UGT91D2, 0.1 mM Rebaudioside A, 30° C.
Method: The total volume of the reaction was 0.5 mL with the following composition: 50 mM sodium phosphate buffer pH 7.2, 3 mM MgCl2, 3.8 mM UDP-glucose, 0.1 mM Rebaudioside A and 180 μL of in-vitro produced UGT91D2. The reactions were run at 30° C. on an orbitary shaker at 135 rpm. For each sample, 450 μl of reaction mixture was quenched with 45 μL of 2N H2SO4 and 405 μL of 60% MeOH. After centrifugation, the supernatant was analyzed by HPLC (CAD). HPLC indicated a 4.7% conversion of rebaudioside A to rebaudioside D after 120 h.

[5] = Transformation of Rubusoside to Stevioside with in-vivo preparations of UGT91D2 (Example 19); format: biochemical; conditions: per mL of lysate; 1 U transforms 1 μmol of substrate in 1 hour at 30° C. and pH 7.2
Method: Activity tests were performed at 5 mL scale with 1000 μL of lysate for the transformation of Rubusoside to Stevioside using 0.5 mM of substrate, 2.5 mM of UDP-Glucose and 3 mM MgCl2 in 50 mM Sodium Phosphate buffer at pH 7.2. Samples were taken and analyzed by HPLC.

[6] = Directed evolution of UGT76G1, Rebaudioside D to Rebaudioside M, round 1 (Example 26); format: biochemical; conditions: 100 μL fresh lysate, 0.5 mM Rebaudioside D, 30° C., pH 7.2
Procedure, shortened: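 Conversion and initial rate were determined by HPLC with CAD detection on samples taken at 2, 4, 7 and 24 h. Reactions ran at 30 °C in 50 mM phosphate buffer pH 7.2 with lysate, Rebaudioside D (0.5 mM), UDP-glucose (2.5 mM) and MgCl2 (3 mM).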

[7] = Directed evolution of UGT76G1, Rebaudioside D to Rebaudioside X, round 2 (Example 41); format: biochemical; conditions: baseline clone Round1-Var94 defined as 100%, 100 μL lysate, 0.5 mM Rebaudioside D, 30° C., pH 7.2
Method: Lysis was performed by addition of Bugbuster® Master mix (Novagen®) to the thawed cells and the lysate was recovered by centrifugation. Activity tests were performed with 100 μL of fresh lysate that was added to a solution of Rebaudioside D (final concentration 0.5 mM), MgCl2 (final concentration 3 mM) and UDP-Glucose (final concentration 2.5 mM) in 50 mM phosphate buffer pH 7.2.
The reaction was allowed to run at 30° C. and samples were taken after 2, 4, 7 and 24 h. to determine conversion and initial rate by HPLC (CAD detection) using the analytical method that was described above for the transformation of Rebaudioside D to Rebaudioside X. In parallel the experiments were performed with baseline clone, Round1-Var94. The conversion after 22 h. and initial rate for this baseline clone was defined as 100% and the normalized conversions and initial rates for the round 2 clones are depicted in the following table: […]

[8] = Activity of UGT76G1_Sc for conversion of Rebaudioside D to Rebaudioside M (Example 35); format: biochemical; conditions: 21 h., based on initial concentration of Rebaudioside D
Method: UGT76G1_Sc was prepared according to EXAMPLE 34. Activity tests were performed at 2 mL scale with 200 μL of lysate for the transformation of Rebaudioside D using 0.5 mM of substrate, 2.5 mM of UDP-Glucose and 3 mM MgCl2 in 50 mM Sodium Phosphate buffer at pH 7.2. Samples were taken and analyzed by HPLC. The corresponding chromatogram is depicted in FIG. 64.

solubility in acetone, benzene, chloroform, and ether [1]: insoluble | solubility in diluted solutions of methanol, ethanol, n-propanol, and isopropanol [1]: soluble | solubility in water ([1]; increases with an increase in temperature): around 0.3% | heat and pH stability [2]: heat and pH-stable
Molecule: C=C1C[C@@]23CC[C@H]4[C@@](C)(CCC[C@@]4(C)C(=O)O[C@@H]4O[C@H](CO)[C@@H](O)[C@H](O[C@@H]5O[C@H](CO)[C@@H](O)[C@H](O)[C@H]5O)[C@H]4O[C@@H]4O[C@H](CO)[C@@H](O)[C@H](O)[C@H]4O)[C@@H]2CC[C@]1(O[C@@H]1O[C@H](CO)[C@@H](O)[C@H](O[C@@H]2O[C@H](CO)[C@@H](O)[C@H](O)[C@H]2O)[C@H]1O[C@@H]1O[C@H](CO)[C@@H](O)[C@H](O)[C@H]1O)C3 [reb M, Rebaudioside M]
sweetness relative to sugar [3]: about 200 times sweeter than sugar

B1: UGT91D2: UDP-glucosyltransferase, Genbank accession no. ACE87855.1 (protein, UniProt B3VI56 1-473, looked up)
UDP-glycosyltransferase 91D2: MATSDSIVDDRKQLHVATFPWLAFGHILPYLQLSKLIAEKGHKVSFLSTTRNIQRLSSHISPLINVVQLTLPRVQELPEDAEATTDVHPEDIPYLKKASDGLQPEVTRFLEQHSPDWIIYDYTHYWLPSIAASLGISRAHFSVTTPWAIAYMGPSADAMINGSDGRTTVEDLTTPPKWFPFPTKVCWRKHDLARLVPYKAPGISDGYRMGLVLKGSDCLLSKCYHEFGTQWLPLLETLHQVPVVPVGLLPPEVPGDEKDETWVSIKKWLDGKQKGSVVYVALGSEVLVSQTEVVELALGLELSGLPFVWAYRKPKGPAKSDSVELPDGFVERTRDRGLVWTSWAPQLRILSHESVCGFLTHCGSGSIVEGLMFGHPLIMLPIFGDQPLNARLLEDKQVGIEIPRNEEDGCLTKESVARSLRSVVVEKEGEIYKANARELSKIYNDTKVEKEYVSQFVDYLEKNTRAVAIDHES
conversion of rebaudioside A to rebaudioside D [4]: 4.7%

B2: Example 17: UGT91D2 lysate using pET30a+ plasmid and Tuner (DE3) expression strain (protein, UniProt B3VI56 1-473, looked up)
UDP-glycosyltransferase 91D2: MATSDSIVDDRKQLHVATFPWLAFGHILPYLQLSKLIAEKGHKVSFLSTTRNIQRLSSHISPLINVVQLTLPRVQELPEDAEATTDVHPEDIPYLKKASDGLQPEVTRFLEQHSPDWIIYDYTHYWLPSIAASLGISRAHFSVTTPWAIAYMGPSADAMINGSDGRTTVEDLTTPPKWFPFPTKVCWRKHDLARLVPYKAPGISDGYRMGLVLKGSDCLLSKCYHEFGTQWLPLLETLHQVPVVPVGLLPPEVPGDEKDETWVSIKKWLDGKQKGSVVYVALGSEVLVSQTEVVELALGLELSGLPFVWAYRKPKGPAKSDSVELPDGFVERTRDRGLVWTSWAPQLRILSHESVCGFLTHCGSGSIVEGLMFGHPLIMLPIFGDQPLNARLLEDKQVGIEIPRNEEDGCLTKESVARSLRSVVVEKEGEIYKANARELSKIYNDTKVEKEYVSQFVDYLEKNTRAVAIDHES
modifications: E. coli lysate
notes: UGT91D2 lysate using pET30a+ plasmid and Tuner (DE3) expression strain
Transformation activity Rubusoside to Stevioside [5]: 28 mU mL^−1

B3: Example 15: UGT91D2 lysate using pMAL plasmid and BL21 expression strain (protein, UniProt B3VI56 1-473, looked up)
UDP-glycosyltransferase 91D2: MATSDSIVDDRKQLHVATFPWLAFGHILPYLQLSKLIAEKGHKVSFLSTTRNIQRLSSHISPLINVVQLTLPRVQELPEDAEATTDVHPEDIPYLKKASDGLQPEVTRFLEQHSPDWIIYDYTHYWLPSIAASLGISRAHFSVTTPWAIAYMGPSADAMINGSDGRTTVEDLTTPPKWFPFPTKVCWRKHDLARLVPYKAPGISDGYRMGLVLKGSDCLLSKCYHEFGTQWLPLLETLHQVPVVPVGLLPPEVPGDEKDETWVSIKKWLDGKQKGSVVYVALGSEVLVSQTEVVELALGLELSGLPFVWAYRKPKGPAKSDSVELPDGFVERTRDRGLVWTSWAPQLRILSHESVCGFLTHCGSGSIVEGLMFGHPLIMLPIFGDQPLNARLLEDKQVGIEIPRNEEDGCLTKESVARSLRSVVVEKEGEIYKANARELSKIYNDTKVEKEYVSQFVDYLEKNTRAVAIDHES
modifications: MBP fusion from pMAL, E. coli lysate
notes: UGT91D2 lysate using pMAL plasmid and BL21 expression strain
Transformation activity Rubusoside to Stevioside [5]: 9 mU mL^−1

B4: Example 18: UGT91D2 lysate using pET30a+ plasmid and ArcticExpress expression strain (protein, UniProt B3VI56 1-473, looked up)
UDP-glycosyltransferase 91D2: MATSDSIVDDRKQLHVATFPWLAFGHILPYLQLSKLIAEKGHKVSFLSTTRNIQRLSSHISPLINVVQLTLPRVQELPEDAEATTDVHPEDIPYLKKASDGLQPEVTRFLEQHSPDWIIYDYTHYWLPSIAASLGISRAHFSVTTPWAIAYMGPSADAMINGSDGRTTVEDLTTPPKWFPFPTKVCWRKHDLARLVPYKAPGISDGYRMGLVLKGSDCLLSKCYHEFGTQWLPLLETLHQVPVVPVGLLPPEVPGDEKDETWVSIKKWLDGKQKGSVVYVALGSEVLVSQTEVVELALGLELSGLPFVWAYRKPKGPAKSDSVELPDGFVERTRDRGLVWTSWAPQLRILSHESVCGFLTHCGSGSIVEGLMFGHPLIMLPIFGDQPLNARLLEDKQVGIEIPRNEEDGCLTKESVARSLRSVVVEKEGEIYKANARELSKIYNDTKVEKEYVSQFVDYLEKNTRAVAIDHES
modifications: E. coli lysate
notes: UGT91D2 lysate using pET30a+ plasmid and ArcticExpress expression strain
Transformation activity Rubusoside to Stevioside [5]: 21 mU mL^−1

B5: UGT76G1var94: UGT76G1 variant, mutations Q266E_P272A_R334K_G348P_L379G (protein, UniProt Q6VAB4 1-458, looked up, variant Q266E P272A R334K G348P L379G)
UDP-glycosyltransferase 76G1: MENKTETTVRRRRRIILFPVPFQGHINPILQLANVLYSKGFSITIFHTNFNKPKTSNYPHFTFRFILDNDPQDERISNLPTHGPLAGMRIPIINEHGADELRRELELLMLASEEDEEVSCLITDALWYFAQSVADSLNLRRLVLMTSSLFNFHAHVSLPQFDELGYLDPDDKTRLEEQASGFPMLKVKDIKSAYSNWQILKEILGKMIKQTKASSGVIWNSFKELEESELETVIREIPAPSFLIPLPKHLTASSSSLLDHDRTVFEWLDQQAPSSVLYVSFGSTSEVDEKDFLEIARGLVDSKQSFLWVVRPGFVKGSTWVEPLPDGFLGERGKIVKWVPQQEVLAHPAIGAFWTHSGWNSTLESVCEGVPMIFSDFGGDQPLNARYMSDVLKVGVYLENGWERGEIANAIRRVMVDEEGEYIRQNARVLKQKADVSLMKGGSSYESLESLVSYISSL
conversion Reb D to Reb M after 24 h [6]: 72.0% | initial rate [6]: 7.9E+07 Reb M area/min | Normalized conversion Reb D to Reb X after 22 h. [7]: 100% | Normalized initial rate (0-4 h) [7]: 100%

B6: UGT76G1_Sc: UGT76G1 produced in S. cerevisiae, lysate (protein, UniProt Q6VAB4 1-458, looked up)
UDP-glycosyltransferase 76G1: MENKTETTVRRRRRIILFPVPFQGHINPILQLANVLYSKGFSITIFHTNFNKPKTSNYPHFTFRFILDNDPQDERISNLPTHGPLAGMRIPIINEHGADELRRELELLMLASEEDEEVSCLITDALWYFAQSVADSLNLRRLVLMTSSLFNFHAHVSLPQFDELGYLDPDDKTRLEEQASGFPMLKVKDIKSAYSNWQILKEILGKMIKQTKASSGVIWNSFKELEESELETVIREIPAPSFLIPLPKHLTASSSSLLDHDRTVFQWLDQQPPSSVLYVSFGSTSEVDEKDFLEIARGLVDSKQSFLWVVRPGFVKGSTWVEPLPDGFLGERGRIVKWVPQQEVLAHGAIGAFWTHSGWNSTLESVCEGVPMIFSDFGLDQPLNARYMSDVLKVGVYLENGWERGEIANAIRRVMVDEEGEYIRQNARVLKQKADVSLMKGGSSYESLESLVSYISSL
modifications: S. cerevisiae lysate
Rebaudioside D conv. (reaction time) ([8]; 200 μL lysate, 0.5 mM substrate, 2.5 mM UDP-Glucose, pH 7.2): 85% (21 h.) | Rebaudioside M selectivity [8]: 100%
